Test results from US20210147519A1 (Regeneron, published 2021).
Residue numbers refer to the chain shown, from its start.

B1: H1H20634D (bispecific antibody, V domains shown)
VH 1: EVQLVESGGGLVQPGRSLRLSCTTSGFTFDDYAMHWVRQVPGQGLEWVAGLSWNSDTIGYADSVKGRFTISRDNAKNSLYLQMKSLKAEDTALYYCTKDFYHSLNNWNYYYFDYWGQGTLVTVSS
VH 2: QVQLVESGGGVVQPGRSLRLSCVASGFTFSSYGFHWVRQAPGKGLEWVAVIWYDGSNEGYVDSVRGRFTISRDFSKNTLYLQMNSLRIEDTAVYYCARRGDYYIMDVWGQGTTVTVSS
VL: not shown
notes: also called anti-IsdB x anti-C1q bispecific antibody
B2: H1H20639D (bispecific antibody, V domains shown)
VH 1: QLQLQESGPGLVKPSETLSLTCTVSGGSISSSSYYWVWIRQPPGKGLEWIGNIYFSGSTYYNPSLKSRVTITVDTSKNQFSLKMTSVTAADTAVYYCARPFYGSRGDYYYGMDVWGQGTTVTVSS
VH 2: QVQLVESGGGVVQPGRSLRLSCAASGFTFSSYGMHWVRQAPGKGLEWVTNIWYDGNNKYYTDSVKGRFTISRDNSKNTLYLQMNSLTAEDTAVYYCARDGDYYVMDVWGQGTTVTVSS
VL: not shown
notes: as for B1
B3: H1H20646D (bispecific antibody, V domains shown)
VH 1: B2 VH 1
VH 2: EVQLVQSGAEVRKPGESLKISCKGSGFSFTSYWIGWVRQMPGKGLEWMGIIFPADSDTRYSPSFQGQVTISADKSINTAYLQWRSLKVSDTAMYYCTKLQYWYFDLWGRGTLVTVSS
VL: not shown
notes: as for B1
B4: H1H20644D (bispecific antibody, V domains shown)
VH 1: B2 VH 1
VH 2: QVQLVESGGGVVQPGRSLRLSCATSGFTFSSYGMHWVRQAPGKGLEWVALIWYDRNNEYYADSVKGRFTISRDNSKNTLYLQMNSLRAEDTAVYYCARGEWEMDYWGQGTLVTVSS
VL: not shown
notes: as for B1
B5: H1H20645D (bispecific antibody, V domains shown)
VH 1: B2 VH 1
VH 2: EVQLVQSGPEVKKPGESLKIACKASGYSFTSYWIGWVRQMPGKGLEWMGIIFPADSDTRYSPSFQGQVTISADKSITTAYLQWRSLQASDTAKYYCVRHVRWSGENWGQGTLVTVSS
VL: not shown
notes: as for B1
B6: H1H20643D (bispecific antibody, V domains shown)
VH 1: B2 VH 1
VH 2: EVQLVQSGAEVKKPGDSLKISCKGSGYSFTTYWIGWVRQMPGKGLEWMGIIFPGDSDTRYSPSFQGQVTISADKSINTAYLQWSSLKASDTAIYYCARHNRWVADYWGQGTLVTVSS
VL: not shown
notes: as for B1
B7: H1H20640D (bispecific antibody, V domains shown)
VH 1: B2 VH 1
VH 2: EVQLVQSGPEVKKPGESLKISCKGSGYNFLGYWIGWVRQMPEKGLEWMAFIYPGDSDFRYSPSFQGQVTISVDRSVTTAYLHWSSLKASDTGIYFCVRQTGNGMDVWGQGTTVTVSS
VL: not shown
notes: as for B1
B8: H1H20647D (bispecific antibody, V domains shown)
VH 1: B2 VH 1
VH 2: B2 VH 2 with T49A, N50L, N56S, Y60F, T61A, N74I, T87R, V104G
VL: not shown
notes: as for B1

How the values were obtained:
[1] = biological target: T1, IsdB expressed on the surface of S. aureus Wood 46 (Staphylococcus aureus); experiment: ELISA on plate-coated S. aureus Wood 46
T1 construct: whole, on cells
Method: Briefly, S. aureus Wood 46 was grown in RPMI overnight, washed in PBS and adjusted to an OD₆₀₀ of 0.25. MaxiSorp 96 well microtiter plates were coated overnight with 100 μl of S. aureus culture per well. Plates were washed and blocked with 3% BSA. […] Anti-human HRP conjugated secondary antibody was added to washed plates. Luminescence reagents (SuperSignal Pico) were then added to the wells and signal was detected in a plate reader (Victor X3 plate reader, Perkin Elmer) immediately. Luminescence values were analyzed by a four-parameter logistic equation over a 7-point response curve (GraphPad Prism) to determine the binding EC₅₀, of the antibodies.

[2] = biological target: T2, Recombinant bacterial IsdB expressed with a hexahistidine tag (IsdB-6xHis; REGN2655) (Staphylococcus aureus, UniProt A6QG30 42-613); experiment: SPR Biacore, captured Ab, IsdB-6xHis analyte, 25C
[3] = biological target: T2, Recombinant bacterial IsdB expressed …; experiment: SPR Biacore, captured Ab, IsdB-6xHis analyte, 37C
[4] = biological target: T3, native human complement component C1q protein purified from human serum (Quidel) (human, UniProt P02745 23-245; P02746 28-253; P02747 29-245); experiment: cell-based or functional assay
[5] = biological target: T3, native human complement component C1q …; experiment: cell-based or functional assay; remark: listed apart in the source
[6] = biological target: T3, native human complement component C1q …; experiment: SPR Biacore, captured Ab, hC1q analyte, 25C
[7] = biological target: T3, native human complement component C1q …; experiment: SPR Biacore, captured Ab, hC1q analyte, 37C
[8] = biological target: T3, native human complement component C1q …; experiment: competition ELISA, 6 nM biot-hC1q, competitor plate-coated hIgM
[9] = biological target: T3, native human complement component C1q …; experiment: competition ELISA, 6 nM biot-hC1q, competitor plate-coated hIgG2-k
[10] = biological target: T3, native human complement component C1q …; experiment: competition ELISA, 30 pM biot-hC1q, competitor plate-coated hIgG1-k
[11] = biological target: T3, native human complement component C1q …; experiment: competition ELISA, 30 pM biot-hC1q, competitor plate-coated hIgG3-k

T1 sequence (Q2FZF0 41-613): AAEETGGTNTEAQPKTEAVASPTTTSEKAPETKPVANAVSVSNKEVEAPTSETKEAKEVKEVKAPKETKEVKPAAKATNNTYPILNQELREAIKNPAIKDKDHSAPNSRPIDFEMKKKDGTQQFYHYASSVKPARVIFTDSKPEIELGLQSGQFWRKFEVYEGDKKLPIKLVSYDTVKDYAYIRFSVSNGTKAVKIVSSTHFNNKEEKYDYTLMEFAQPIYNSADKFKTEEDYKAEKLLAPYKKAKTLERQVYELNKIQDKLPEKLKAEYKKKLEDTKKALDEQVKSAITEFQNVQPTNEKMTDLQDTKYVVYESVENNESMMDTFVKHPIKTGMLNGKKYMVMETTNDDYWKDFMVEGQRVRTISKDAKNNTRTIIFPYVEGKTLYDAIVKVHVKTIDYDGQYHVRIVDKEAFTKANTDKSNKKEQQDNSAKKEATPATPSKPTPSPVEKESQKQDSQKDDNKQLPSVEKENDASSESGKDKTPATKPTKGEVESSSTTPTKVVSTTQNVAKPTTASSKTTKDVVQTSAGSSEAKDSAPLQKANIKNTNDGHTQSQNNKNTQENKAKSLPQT
T2 sequence (A6QG30 42-613, tags left off): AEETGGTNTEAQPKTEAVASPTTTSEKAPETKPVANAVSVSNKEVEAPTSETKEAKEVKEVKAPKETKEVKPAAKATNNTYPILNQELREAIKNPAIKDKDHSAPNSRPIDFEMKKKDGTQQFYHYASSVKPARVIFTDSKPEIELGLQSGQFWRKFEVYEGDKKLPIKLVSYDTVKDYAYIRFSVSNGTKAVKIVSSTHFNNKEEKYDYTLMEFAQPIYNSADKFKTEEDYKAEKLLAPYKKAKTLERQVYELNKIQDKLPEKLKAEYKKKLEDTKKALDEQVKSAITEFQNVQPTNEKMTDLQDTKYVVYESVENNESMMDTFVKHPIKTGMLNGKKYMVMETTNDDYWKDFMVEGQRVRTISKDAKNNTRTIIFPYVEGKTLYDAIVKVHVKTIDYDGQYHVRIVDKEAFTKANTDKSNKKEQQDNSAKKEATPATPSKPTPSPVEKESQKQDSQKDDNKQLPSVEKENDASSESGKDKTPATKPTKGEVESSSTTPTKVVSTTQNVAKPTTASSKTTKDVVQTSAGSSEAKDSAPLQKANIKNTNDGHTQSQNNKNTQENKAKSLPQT
T3 sequence (P02745 23-245 limits assumed, chain 1 of 3): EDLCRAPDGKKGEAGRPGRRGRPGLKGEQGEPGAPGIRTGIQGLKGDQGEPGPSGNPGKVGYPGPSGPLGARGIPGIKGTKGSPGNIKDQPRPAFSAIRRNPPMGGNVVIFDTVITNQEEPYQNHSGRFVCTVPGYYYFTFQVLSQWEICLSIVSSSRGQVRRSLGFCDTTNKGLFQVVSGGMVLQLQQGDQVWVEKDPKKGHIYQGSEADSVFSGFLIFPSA
T3 sequence (P02746 28-253 limits assumed, chain 2 of 3): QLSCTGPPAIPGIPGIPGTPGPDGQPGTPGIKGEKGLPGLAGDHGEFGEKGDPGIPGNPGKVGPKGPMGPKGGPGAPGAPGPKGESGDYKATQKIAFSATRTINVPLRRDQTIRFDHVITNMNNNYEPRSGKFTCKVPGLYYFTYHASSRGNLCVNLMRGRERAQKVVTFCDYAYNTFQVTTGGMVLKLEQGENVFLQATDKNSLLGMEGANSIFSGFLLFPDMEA
T3 sequence (P02747 29-245 limits assumed, chain 3 of 3): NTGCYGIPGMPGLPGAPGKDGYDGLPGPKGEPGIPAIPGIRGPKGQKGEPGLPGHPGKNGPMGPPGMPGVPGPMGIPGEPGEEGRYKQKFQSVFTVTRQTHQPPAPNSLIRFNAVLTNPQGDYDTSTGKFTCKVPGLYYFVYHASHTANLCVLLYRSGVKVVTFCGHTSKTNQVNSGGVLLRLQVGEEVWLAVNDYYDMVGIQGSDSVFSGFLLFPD

| Binder | EC50 [1] [nM] | Kd [2] [nM] | koff [2] [s⁻¹] | kon [2] [M⁻¹ s⁻¹] | t½ [2] [min] | Kd [3] [nM] | koff [3] [s⁻¹] | kon [3] [M⁻¹ s⁻¹] | t1/2 [3] [min] | inhibition of CDC of Daudi cells, IC50 [M] [4] [M] | inhibition of CDC of Daudi cells, Max % Inhibition [4] [%] | C1q deposition on S. aureus Cowan I EC50 [5] [nM] | Kd [6] [nM] | koff [6] [s⁻¹] | kon [6] [M⁻¹ s⁻¹] | t½ [6] [min] | Kd [7] [nM] | koff [7] [s⁻¹] | kon [7] [M⁻¹ s⁻¹] | t1/2 [7] [min] | other results |
| --- | --- | --- | --- | --- | --- | --- | --- | --- | --- | --- | --- | --- | --- | --- | --- | --- | --- | --- | --- | --- | --- |
| B1 | 1.04 | 2.65 | 0.000296 | 112000 | 39 | 3.81 | 0.000573 | 150000 | 20.2 | – | – | – | – | – | – | – | – | – | – | – | – |
| B2 | 13.3 | 11.3 | 0.000562 | 49800 | 20.5 | 18.5 | 0.00148 | 80200 | 7.81 | > 1e-07 | 70 | 2.06 | 0.655 | 0.00612 | 9.35e+06 | 1.89 | 0.664 | 0.00859 | 1.29e+07 | 1.34 | % Blockade with 600 nM bispecific Ab [8]: 86%; IC50 [8]: 42 nM; % Blockade with 600 nM bispecific Ab [9]: 82%; IC50 [9]: 70 nM; % Blockade with 30 nM bispecific Ab [10]: 64%; % Blockade with 30 nM bispecific Ab [11]: 33% |
| B3 | 12.9 | 9.74 | 0.000433 | 44500 | 26.7 | 18.5 | 0.0015 | 80700 | 7.72 | – | – | – | – | – | – | – | – | – | – | – | – |
| B4 | 12.6 | 11 | 0.000554 | 50300 | 20.8 | 18.2 | 0.0015 | 82500 | 7.7 | > 1e-07 | 88 | 1.12 | 0.232 | 0.00624 | 2.69e+07 | 1.85 | 0.924 | 0.0276 | 2.98e+07 | 0.42 | % Blockade with 600 nM bispecific Ab [8]: 75%; IC50 [8]: 43 nM; % Blockade with 600 nM bispecific Ab [9]: 81%; IC50 [9]: 63 nM; % Blockade with 30 nM bispecific Ab [10]: 66%; IC50 [10]: 24 nM; % Blockade with 30 nM bispecific Ab [11]: 36% |
| B5 | 11.9 | 9.95 | 0.000551 | 55400 | 21 | 19.1 | 0.00155 | 81200 | 7.43 | 3.4e-08 | ≥ 99 | 0.298 | 0.158 | 0.00452 | 2.86e+07 | 2.56 | 0.88 | 0.0317 | 3.6e+07 | 0.36 | % Blockade with 600 nM bispecific Ab [8]: 95%; IC50 [8]: 13 nM; % Blockade with 600 nM bispecific Ab [9]: 87%; IC50 [9]: 18 nM; % Blockade with 30 nM bispecific Ab [10]: 94%; IC50 [10]: 0.84 nM; % Blockade with 30 nM bispecific Ab [11]: 87%; IC50 [11]: 5.3 nM |
| B6 | 10.1 | 9.42 | 0.000555 | 58900 | 20.8 | 18.5 | 0.00148 | 79900 | 7.81 | – | – | – | – | – | – | – | – | – | – | – | – |
| B7 | 18 | 9.36 | 0.000553 | 59100 | 20.9 | 17.2 | 0.00142 | 82800 | 8.13 | – | – | – | – | – | – | – | – | – | – | – | – |
| B8 | 7.3 | 12.3 | 0.000565 | 46000 | 20.4 | 21.5 | 0.00154 | 71500 | 7.51 | > 1e-07 | 82 | 0.587 | 0.368 | 0.0034 | 9.25e+06 | 3.39 | 0.439 | 0.00576 | 1.31e+07 | 2 | % Blockade with 600 nM bispecific Ab [8]: 91%; IC50 [8]: 25 nM; % Blockade with 600 nM bispecific Ab [9]: 80%; IC50 [9]: 32 nM; % Blockade with 30 nM bispecific Ab [10]: 85%; IC50 [10]: 9 nM; % Blockade with 30 nM bispecific Ab [11]: 60% |
